Target: CXCR3 from Mus musculus (NCBI accession no. NP_034040) (Mus musculus) (UniProt O88410)
Assay: cell-based or functional assay

UniProt O88410, sequence (O88410 whole entry): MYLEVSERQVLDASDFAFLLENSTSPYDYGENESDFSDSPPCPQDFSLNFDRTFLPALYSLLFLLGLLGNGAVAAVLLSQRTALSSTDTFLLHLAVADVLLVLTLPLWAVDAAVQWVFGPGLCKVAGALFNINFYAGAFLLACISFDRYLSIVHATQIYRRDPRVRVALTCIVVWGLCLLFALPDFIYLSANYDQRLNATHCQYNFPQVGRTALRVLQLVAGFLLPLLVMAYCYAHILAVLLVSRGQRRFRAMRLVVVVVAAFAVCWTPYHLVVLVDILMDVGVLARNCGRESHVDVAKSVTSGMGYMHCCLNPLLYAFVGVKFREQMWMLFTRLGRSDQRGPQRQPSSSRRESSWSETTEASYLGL

Substance: PT-gliadin (gliadin digested with pepsin and trypsin) (peptide)
- TEER, WT mouse intestinal segments (n=10), baseline: 24.1
- TEER, WT mouse intestinal segments (n=10), post-gliadin exposure: 14.7
- zonulin release, WT mouse intestinal segments (n=10), baseline (ng/mg protein): 0.33
- zonulin release, WT mouse intestinal segments (n=10), post-gliadin exposure (ng/mg protein): 0.61

From patent US20070048801A1
